T1: Tcf4 (Transcription factor 4) DNA binding B-HLH domain
T1 chain: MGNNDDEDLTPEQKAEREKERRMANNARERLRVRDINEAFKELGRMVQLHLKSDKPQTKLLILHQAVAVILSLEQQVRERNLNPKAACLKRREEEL

B1: Ascl1 (Achaete-scute homolog 1) DNA binding B-HLH domain (domain or fragment)
chain: MASGFGYSLPQQQPAAVARRNERERNRVKLVNLGFATLREHVPNGAANKKMSKVETLRSAVEYIRALQQLLDEHDAVSAAFQAGVLSPEL
B2: Tcf3 (Transcription factor 3) DNA binding B-HLH domain (domain or fragment)
chain: MGHMVHRPWIQDEVLSLEEKDLRDRERRMANNARERVRVRDINEAFRELGRMCQLHLKSDKAQTKLLILQQAVQVILGLEQQVRERNLNPKAACGGRTRIVSAHNSENEL

How the values were obtained:
[1] = molecular target: B2; test: native gel or EMSA
[2] = molecular target: T1, Tcf4 (Transcription factor 4) DNA …; test: native gel or EMSA
[3] = molecular target: Tcf12 (Transcription factor 12) DNA binding B-HLH domain; test: native gel or EMSA
CD thermal denaturation = molecular target: the molecule itself; test: CD thermal denaturation

Row | binding result [1] | binding result [2] | binding result [3] | Binder | binding result (CD thermal denaturation)
1 | binds | binds | binds | B1 | 
2 |  |  |  | B2 | binds

From article PMC6258048 (Biochemical and biophysical research communications, 2014)
